Laboratory results reported in patent US11999794B2, “Human mesothelin chimeric antigen receptors and uses thereof” (Novartis AG, priority 2013, dated 2024).
“Also recorded” adds a separate entry of the source.

Assays:
[1] = system: mesoCAR TILs against EMMESO tumor cells; test: Ex vivo killing and cytokine release assays with blocking agents; assay type: cell-based, human; conditions: blocking agent added ex vivo
Procedure: T cell Effector Assays. Effector T cells were cocultured with firefly luciferase expressing tumor cells at different ratios for a specified period time. At the end of the co-culture incubation period, supernatant was saved for IFN levels by ELISA (Biolegend #430106), wells were washed, and remaining tumor cells were lysed with 1× cell lysis buffer for 30 minutes. The luciferase activity in the lysates was analyzed using the Luciferase Assay System on a GloMax Multi Detection System (Promega.) Results are reported as percent killing based on luciferase activity in wells with tumor, but no T cells. (% killing=100-((RLU from well with effector and target cell coculture)/(RLU from well with target cells)×100)). Effector-to-target ratios represent total T cells per target cell.
Given these expression data, the potential functional importance of specific inhibitory pathways in mesoCAR TILs was studied by introducing available blocking agents during the ex vivo killing and cytokine release assays. […] The relatively high dose of 10 ug/ml anti-PDL1 antibody was based on previously published investigations on cancer immunotherapy.

[2] = Size exclusion chromatography (oligomerization state of expressed scFvs); assay type: physicochemical; conditions: purified scFv
Procedure: Size exclusion chromatography was performed to determine the oligomerization states of the expressed scFvs. 25 μg each was injected onto a TSKGel Super SW3000 4.6 mm×300 mm column (Tosoh Bioscience) heated to 35° C. The scFvs were eluted at 0.3 mL/min in 750 mM arginine, 1 mM EDTA, 20 mM sodium phosphate, 250 mM sodium chloride, pH 7.2; the UV absorbance was monitored at 280 nm.

Ovcar8 = Ovcar8 xenograft model (Example 8); assay type: in vivo, NSG mice; conditions: OVCAR8-mcherry; 10×10^6 T cells, about 4×10^6 CART cells
Procedure: Anti-tumor activity of CART-MSLN was assessed in vivo in an Ovcar8 xenograft model. 10×10^6 Ovcar8 cells were implanted subcutaneously on day 0 in NSG mice. At day 14, 2×10^6 CART cells (CARTs expressing M5, M11, M17, M21, SS1, and CD19, or untransduced cells; 10×10^6 total T cells) in a 100 μl dose was administered intravenously. Mice and tumors were monitored for about 40 days after tumor cell implantation.
A second in vivo xenograft experiment was performed to assess the anti-tumor activity of a second set of CART-MSLN cells. 10×10^6 OVCAR8-mcherry cells were injected into NSG mice. Once tumors were 150-250 mm^2, mice were randomized into treatment groups. CARTs expressing M12, M14, M16, M23, ss1, CD19, or untreated cells were injected at a dose of 10×10^6 T cells in 100 μl. About 40% of T cells were expressing CAR, and therefore at the administered dosage, about 4×10^6 CART cells were delivered to each animal.

[3] = biological target: T1, biotinylated mesothelin ECD (Homo sapiens, UniProt Q13421); test: SPR relative epitope binning in comparison to SS1; assay type: binding; conditions: 50 nM SS1 captured first, then scFv at 100 nM
T1 construct: made in house; host or cells: HEK293F (transient)
T1 sequence (Q13421 with tags, fused parts or gaps): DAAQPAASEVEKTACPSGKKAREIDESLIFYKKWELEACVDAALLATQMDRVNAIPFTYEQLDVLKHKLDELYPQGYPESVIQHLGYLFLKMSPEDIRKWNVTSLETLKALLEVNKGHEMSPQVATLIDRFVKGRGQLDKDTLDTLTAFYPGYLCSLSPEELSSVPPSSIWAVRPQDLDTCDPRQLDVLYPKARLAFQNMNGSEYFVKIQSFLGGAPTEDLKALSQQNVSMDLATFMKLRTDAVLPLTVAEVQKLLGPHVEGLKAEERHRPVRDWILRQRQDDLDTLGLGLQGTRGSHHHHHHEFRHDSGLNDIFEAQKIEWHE
Procedure: In embodiments, the competition assay is an SPR-based assay. Briefly, the antigen, e.g., human mesothelin, is immobilized on a surface. Through a microflow system, a reference antibody is injected over the antigen layer. Upon binding of the reference antibody to the antigen, an increase in signal, typically expressed in response units (RU) is detected, e.g., reference signal. After a desired time, a test antibody is injected over the antigen layer. If the test antibody binds to a different region or epitope of the antigen, then an additional increase in signal is detected, e.g., a 5% or more, 10% or more, 15% or more, 20% or more, 25% or more, 30% or more, 35%, or more, 40% or more, 45% or more, 50% or more, 55% of more, 60% or more, 65% or more, 70% or more, 75% or more, 80% or more, 85% or more, 90% or more, or 95% or more increase in signal, e.g., RU, as compared to the highest signal detected upon binding of the reference antibody, e.g., the reference signal. If the test antibody binds to the same region or epitope of the antigen, then little or no increase in signal, e.g., RU, will be detected, e.g., less than 20%, less than 15%, less than 10%, less than 5%, less than 4%, less than 3%, less than 2%, or less than 1% increase in signal, e.g., RU, as compared to the highest signal detected upon binding of the reference antibody, e.g., the reference signal. When using this SPR-based competition assay, an antibody is said to compete with the reference antibody when less than 20%, less than 15%, less than 10%, less than 5%, less than 4%, less than 3%, less than 2%, or less than 1% increase in signal, e.g., RU, is detected when compared to the reference signal detected upon binding of the reference antibody to the antigen. An antibody is said to not compete, or compete poorly, with a reference antibody when a 5% or more, 10% or more, 15% or more, 20% or more, 25% or more, 30% or more, 35%, or more, 40% or more, 45% or more, 50% or more, 55% of more, 60% or more, 65% or more, 70% or more, 75% or more, 80% or more, 85% or more, 90% or more, or 95% or more increase in signal, e.g., RU, is detected when compared to the reference signal detected upon binding of the reference antibody to the antigen.
To determine the relative binding epitope of each of the scFvs in comparison to SS1, 50 nM SS1 was captured by biotinylated mesothelin ECD immobilized on a streptavidin sensor chip at a contact time of 180 seconds resulting in a relative density of 70 RU. Purified scFv at 100 nM (M5, M11, M12, M14, M16, M17, M21, or M23) was then immediately injected over the chip to minimize dissociation of the SS1/mesothelin complex. Binding of the secondary scFv was monitored for 270 seconds.

[4] = biological target: T1, biotinylated mesothelin ECD; test: Surface plasmon resonance (Biacore T200) binding affinity of purified scFvs; conditions: for Kd: 1:1 Binding or Steady State Affinity fit
Procedure: Binding affinity of purified scFvs was measured on a Biacore T200 system. Briefly, recombinant human biotinylated mesothelin ECD was immobilized on a streptavidin (SA) sensor chip surface at a density of 150 RU. Purified scFv was injected over the chip under constant flow rate at three-fold serial dilutions. Association and dissociation rates of the protein complex were monitored for 270 seconds and 400 seconds, respectively. Double referencing was performed against a blank immobilized flow cell and a buffer blank. Affinity was determined with a Langmuir 1:1 binding model when possible, for those scFVs where accurate fitting was not possible due to fast on and off rates, the steady state model was used.

Molecule: O.O.O.O.O.O.O.O.O.O=C([O-])[C@@H]1[O][Sb]2([O-])([O][Sb]34([OH])[O][C@H]([C@H](O)CO)[C@H]([O]3)[C@H](C(=O)[O-])[O]4)[O][C@H]([C@H](O)CO)[C@@H]1[O]2.[Na+].[Na+].[Na+] [SSG, sodium stibogluconate]
- killing ability of cryo mesoCAR T cells [1]: slightly inhibited
- killing activity of mesoCAR TILs [1]: significantly increased
- tumor-induced IFN secretion of mesoCAR TILs [1]: significantly increasing

B1: M23: human anti-mesothelin scFv SEQ ID NO: 61; CDRs in Tables 4 and 5 (protein)
scFv: QVQLQQSGAEVKKPGASVKVSCKASGYTFTNYYMHWVRQAPGQGLEWMGIINPSGGYTTYAQKFQGRLTMTRDTSTSTVYMELSSLRSEDTAVYYCARIRSCGGDCYYFDNWGQGTLVTVSSGGGGSGGGGSGGGGSGGGGSDIQLTQSPSTLSASVGDRVTITCRASENVNIWLAWYQQKPGKAPKLLIYKSSSLASGVPSRFSGSGSGAEFTLTISSLQPDDFATYYCQQYQSYPLTFGGGTKVDIK
- % Monomer (SEC) [2]: 91%
- effect on tumor growth, second xenograft experiment (Ovcar8): did not have an effect on tumor growth
- relative epitope binning against SS1 on human mesothelin [3]: Competitive binding; also recorded: competitive binders with SS1
- Kd [4]: 114 nM

B2: M16: human anti-mesothelin scFv SEQ ID NO: 54; full CAR SEQ ID NO: 78 (protein)
scFv: EVQLVESGGGLVQPGRSLRLSCAASGFTFDDYAMHWVRQAPGKGLEWVSGISWNSGSTGYADSVKGRFTISRDNAKNSLYLQMNSLRAEDTALYYCAKDSSSWYGGGSAFDIWGQGTMVTVSSGGGGSGGGGSGGGGSSSELTQEPAVSVALGQTVRITCQGDSLRSYYASWYQQKPGQAPVLVIFGRSRRPSGIPDRFSGSSSGNTASLIITGAQAEDEADYYCNSRDNTANHYVFGTGTKLTVL
- % Monomer (SEC) [2]: 94.5%
- effect on tumor growth, second xenograft experiment (Ovcar8): did not have an effect on tumor growth
- relative epitope binning against SS1 on human mesothelin [3]: Competitive binding; also recorded: competitive binders with SS1
- ka ([4]; 1:1 Binding fit): 174000 M⁻¹ s⁻¹
- kd ([4]; 1:1 Binding fit): 0.00395 s⁻¹
- Kd [4]: 22.7 nM
